The target in the assay is T1, glycosylated synapsin I from olfactory bulb lysate (rat, UniProt P09951 1-704, limits assumed, Fucα(1-2)Gal glycosylated (sites not given)).
T1 construct: Endogenous protein in tissue lysate, detected by Western blot with mouse anti-synapsin I ascites
As to the kind of experiment: lectin affinity chromatography on UEAI-agarose, elution with 200 mM L-fucose, Western blot for synapsin I.

B1: UEAI lectin conjugated to agarose (Vector Laboratories) (other, UniProt P22972 1-243, looked up)
chain: SDDLSFKFKNFSQNGKDLSFQGDASVIETGVLQLNKVGNNLPDETGGIARYIAPIHIWNCNTGEVASFITSFSFFMETSANPKAATDGLTFFLAPPDSPLRRAGGYFGLFEDTKDNDSSYQTVAVEFDTIGSPVNFDDPGFPHIGIDVNRVKSINAERWNKRYGLNNVANVEIIYEASSKTLTASLTYPSDQTSISVTSIVDLKEILPEWVSVGFSGGTYIGRQATHEVLNWYFTSNLINTNS
modifications: conjugated to agarose
As for B1, the binding result is given as “no binding (tested: 500 µg lysate)”.

The values are drawn from patent US20140323699A1 (CALIFORNIA INSTITUTE OF TECHNOLOGY, published 2014).
